Source: US6004757

Columns and labels:
[1] = molecular target: chicken pp60^v-src (chicken)
[2] = molecular target: human EGF receptor (human) (UniProt P00533)
[3] = molecular target: GST-fusion construct of src
[4] = molecular target: chicken pp60^v-src (chicken); assay: inhibition of transphosphorylation of acid denatured enolase (1 µM) by immobilised pp60^v-src, [γ-32P]-ATP, SDS-PAGE

peptide Ala-Glu-Glu-Glu-Ile-Tyr-Gly-Glu-Phe-Glu-Ala-Lys-Lys-Lys-Lys
Km (µM) of phosphorylation of the peptide by the kinase [1]: 32.9 µM | Km (µM) of phosphorylation of the peptide by the kinase [2]: 34 µM | Km of phosphorylation of the peptide by the kinase [3]: 33 µM | Ki [4]: 8 µM
